B1: Methylthioribulose-1-phosphate dehydratase (Homo sapiens), Q96GX9 (parent)
chain: MSGCDAREGDCCSRRCGAQDKEHPRYLIPELCKQFYHLGWVTGTGGGISLKHGDEIYIAPSGVQKERIQPEDMFVCDINEKDISGPSPSKKLKKSQCTPLFMNAYTMRGAGAVIHTHSKAAVMATLLFPGREFKITHQEMIKGIKKCTSGGYYRYDDMLVVPIIENTPEEKDLKDRMAHAMNEYPDSCAVLVRRHGVYVWGETWEKAKTMCECYDYLFDIAVSMKKVGLDPSQLPVGENGIV
partner: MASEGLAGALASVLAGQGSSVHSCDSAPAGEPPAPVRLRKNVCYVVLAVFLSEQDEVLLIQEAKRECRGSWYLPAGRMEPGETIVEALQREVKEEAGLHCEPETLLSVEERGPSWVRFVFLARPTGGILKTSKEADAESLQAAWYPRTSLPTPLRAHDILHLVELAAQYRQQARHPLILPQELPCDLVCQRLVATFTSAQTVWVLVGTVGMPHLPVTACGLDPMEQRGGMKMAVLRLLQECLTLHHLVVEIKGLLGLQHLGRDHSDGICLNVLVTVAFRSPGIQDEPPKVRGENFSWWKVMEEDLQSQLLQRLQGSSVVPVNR
B2: Migration and invasion-inhibitory protein (Homo sapiens), Q5JXC2 (parent)
chain: MVEAEELAQLRLLNLELLRQLWVGQDAVRRSVARAASESSLESSSSYNSETPSTPETSSTSLSTSCPRGRSSVWGPPDACRGDLRDVARSGVASLPPAKCQHQESLGRPRPHSAPSLGTSSLRDPEPSGRLGDPGPQEAQTPRSILAQQSKLSKPRVTFSEESAVPKRSWRLRPYLGYDWIAGSLDTSSSITSQPEAFFSKLQEFRETNKEECICSHPEPQLPGLRESSGSGVEEDHECVYCYRVNRRLFPVPVDPGTPCRLCRTPRDQQGPGTLAQPAHVRVSIPLSILEPPHRYHIHRRKSFDASDTLALPRHCLLGWDIFPPKSEKSSAPRNLDLWSSVSAEAQHQKLSGTSSPFHPASPMQMLPPTPTWSVPQVPRPHVPRQKP
B3: Protein LDOC1 (Homo sapiens), O95751 (parent)
chain: MVDELVLLLHALLMRHRALSIENSQLMEQLRLLVCERASLLRQVRPPSCPVPFPETFNGESSRLPEFIVQTASYMLVNENRFCNDAMKVAFLISLLTGEAEEWVVPYIEMDSPILGDYRAFLDEMKQCFGWDDDEDDDDEEEEDDY
partner: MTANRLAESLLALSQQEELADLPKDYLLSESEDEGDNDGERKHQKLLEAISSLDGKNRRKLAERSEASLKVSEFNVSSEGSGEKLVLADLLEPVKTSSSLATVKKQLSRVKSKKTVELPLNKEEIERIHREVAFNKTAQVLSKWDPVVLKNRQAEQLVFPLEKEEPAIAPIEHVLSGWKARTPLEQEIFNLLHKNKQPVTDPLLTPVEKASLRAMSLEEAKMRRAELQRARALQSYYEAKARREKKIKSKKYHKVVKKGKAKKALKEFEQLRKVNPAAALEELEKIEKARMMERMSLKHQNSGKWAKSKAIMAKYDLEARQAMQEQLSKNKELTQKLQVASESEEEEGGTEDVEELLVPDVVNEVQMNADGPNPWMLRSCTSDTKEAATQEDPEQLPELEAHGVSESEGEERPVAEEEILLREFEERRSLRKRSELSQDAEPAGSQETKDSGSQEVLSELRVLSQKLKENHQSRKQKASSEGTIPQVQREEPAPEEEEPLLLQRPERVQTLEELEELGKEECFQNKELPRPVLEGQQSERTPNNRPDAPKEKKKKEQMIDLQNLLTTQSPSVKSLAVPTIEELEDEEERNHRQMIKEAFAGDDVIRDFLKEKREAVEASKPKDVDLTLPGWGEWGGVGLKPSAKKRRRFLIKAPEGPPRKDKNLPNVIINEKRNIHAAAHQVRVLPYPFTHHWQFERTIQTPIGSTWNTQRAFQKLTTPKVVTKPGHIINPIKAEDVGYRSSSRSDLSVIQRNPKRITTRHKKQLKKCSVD
B4: Proto-oncogene serine/threonine-protein kinase mos (Homo sapiens), P00540 (parent)
chain: MPSPLALRPYLRSEFSPSVDARPCSSPSELPAKLLLGATLPRAPRLPRRLAWCSIDWEQVCLLQRLGAGGFGSVYKATYRGVPVAIKQVNKCTKNRLASRRSFWAELNVARLRHDNIVRVVAASTRTPAGSNSLGTIIMEFGGNVTLHQVIYGAAGHPEGDAGEPHCRTGGQLSLGKCLKYSLDVVNGLLFLHSQSIVHLDLKPANILISEQDVCKISDFGCSEKLEDLLCFQTPSYPLGGTYTHRAPELLKGEGVTPKADIYSFAITLWQMTTKQAPYSGERQHILYAVVAYDLRPSLSAAVFEDSLPGQRLGDVIQRCWRPSAAQRPSARLLLVDLTSLKAELG
partner: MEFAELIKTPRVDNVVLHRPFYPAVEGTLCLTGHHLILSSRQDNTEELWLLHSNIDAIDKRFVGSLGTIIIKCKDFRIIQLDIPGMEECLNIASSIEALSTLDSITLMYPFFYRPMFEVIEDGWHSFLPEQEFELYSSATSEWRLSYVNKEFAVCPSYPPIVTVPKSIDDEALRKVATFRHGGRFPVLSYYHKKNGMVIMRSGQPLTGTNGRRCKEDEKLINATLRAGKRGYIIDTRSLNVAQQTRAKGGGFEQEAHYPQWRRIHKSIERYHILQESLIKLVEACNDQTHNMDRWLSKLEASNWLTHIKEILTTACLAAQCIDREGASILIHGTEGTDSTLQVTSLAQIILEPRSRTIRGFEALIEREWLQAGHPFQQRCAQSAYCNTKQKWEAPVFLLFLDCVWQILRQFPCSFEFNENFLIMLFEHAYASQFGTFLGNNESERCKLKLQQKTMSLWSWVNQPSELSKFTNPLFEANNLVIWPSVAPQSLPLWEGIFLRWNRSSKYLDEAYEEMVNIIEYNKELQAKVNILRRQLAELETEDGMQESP

Variants of: B1
Conditions: with nud18_human NUDT18, Q6ZVK8

Variant	effect of a mutation on the interaction
MSGCDAREGDCCSRRCGAQDKEHPRYLIPELCKQFYHLGWVTGTGGGISLKHGDEIYIAPSGVQKERIQPEDMFVCDINEKDISGPSPSKKLKKSQCTPLFMNAYTMRGAAAVIHTHSKAAVMATLLFPGREFKITHQEMIKGIKKCTSGGYYRYDDMLVVPIIENTPEEKDLKDRMAHAMNEYPDSCAVLVRRHGVYVWGETWEKAKTMCECYDYLFDIAVSMKKVGLDPSQLPVGENGIV [G111A]	with no effect
MSGCDAREGDCCSRRCGAQDKEHPRYLIPELCKQFYHLGWVTGTGGGISLKHGDEIYIAPSGVQKERIQPEDMFVCDINEKDISGPSPSKKLKKSQCTPLFMNAYTMRGAGAVIHTHSKAAVMATLLFPGREFKITHQEMIKGIKKCTSGGYYRYDDMLVVPIIENTPEEKDLKDRMAHAVNEYPDSCAVLVRRHGVYVWGETWEKAKTMCECYDYLFDIAVSMKKVGLDPSQLPVGENGIV [M181V]	with no effect

Variants of: B2
Conditions: with stk16_human STK16, O75716
Chain of stk16_human STK16, O75716 (O75716 whole entry): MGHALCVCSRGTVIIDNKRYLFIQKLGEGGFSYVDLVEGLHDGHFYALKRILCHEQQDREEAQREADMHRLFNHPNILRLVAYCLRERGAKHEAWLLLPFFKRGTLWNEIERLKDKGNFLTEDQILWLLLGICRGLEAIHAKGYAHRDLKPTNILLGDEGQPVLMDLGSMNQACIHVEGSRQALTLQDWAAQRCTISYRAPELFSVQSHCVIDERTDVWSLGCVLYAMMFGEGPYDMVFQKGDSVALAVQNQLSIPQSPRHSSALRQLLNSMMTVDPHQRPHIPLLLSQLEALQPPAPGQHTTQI

Variant	effect of a mutation on the interaction
MVEAEELAQLRLLNLELLRQLWVGQDAVRRSVARAASESSLESSSSYNSETPSTPETSSTSLSTSCPRGRSSVWGPPDACRGDLRDVARSGVASLPPAKCQHQESLGRPRPHSAPSLGTSSLRDPEPSGRLGDPGPQEAQTPRSILAQQSKLSKPRVTFSEESAVPKRSWCLRPYLGYDWIAGSLDTSSSITSQPEAFFSKLQEFRETNKEECICSHPEPQLPGLRESSGSGVEEDHECVYCYRVNRRLFPVPVDPGTPCRLCRTPRDQQGPGTLAQPAHVRVSIPLSILEPPHRYHIHRRKSFDASDTLALPRHCLLGWDIFPPKSEKSSAPRNLDLWSSVSAEAQHQKLSGTSSPFHPASPMQMLPPTPTWSVPQVPRPHVPRQKP [R171C]	with no effect

Variants of: B3
Conditions: with ut14a_human UTP14A

Variant	effect of a mutation on the interaction
L12H	with no effect

Variants of: B4
Conditions: with mtmr9_human MTMR9, Q96QG7

Variant	effect of a mutation on the interaction
MPSPLALRPYLRSEFSPSVDARPCSSPSELPAKLLLGATLPRAPRLPRRLAWCSVDWEQVCLLQRLGAGGFGSVYKATYRGVPVAIKQVNKCTKNRLASRRSFWAELNVARLRHDNIVRVVAASTRTPAGSNSLGTIIMEFGGNVTLHQVIYGAAGHPEGDAGEPHCRTGGQLSLGKCLKYSLDVVNGLLFLHSQSIVHLDLKPANILISEQDVCKISDFGCSEKLEDLLCFQTPSYPLGGTYTHRAPELLKGEGVTPKADIYSFAITLWQMTTKQAPYSGERQHILYAVVAYDLRPSLSAAVFEDSLPGQRLGDVIQRCWRPSAAQRPSARLLLVDLTSLKAELG [I55V]	with no effect

From IntAct's records for PubMed 31515488
